This data set has as its system unidentified red blood cell ghost membrane protein, apparent 105 kDa (target of c56t) (Homo sapiens). Briefly: filter. The following applies: Scatchard on whole RBC ghosts, estimated, 1900 sites per cell; target taken as the 105 kDa protein from crosslinking.

Regarding “AACTCAGTGGTAGGTAACGGTT [C56T (22-nt truncate of clone 56)]”, the Kd is 0.042 nM.

The record behind these values is patent US5789157.
